In patent publication US20240383983A1 (ABL BIO, published 2024):

How the values were obtained:
[1] = target: T1, human B7-H4 expressed on cells (CHOK-1 B7-H4, SK-BR3, CAMA-1, MDA-MB-468, MX-1, OVCAR-3) (human, UniProt Q7Z7D3 25-282); experiment: FACS on CAMA-1 cells, FITC anti-human IgG1 detection; y axis 'Fold of induction'
T1 construct: whole, on cells; also called B7-H4 expressed cell line; B7-H4 positive cancer cell lines
T1 sequence (looked up): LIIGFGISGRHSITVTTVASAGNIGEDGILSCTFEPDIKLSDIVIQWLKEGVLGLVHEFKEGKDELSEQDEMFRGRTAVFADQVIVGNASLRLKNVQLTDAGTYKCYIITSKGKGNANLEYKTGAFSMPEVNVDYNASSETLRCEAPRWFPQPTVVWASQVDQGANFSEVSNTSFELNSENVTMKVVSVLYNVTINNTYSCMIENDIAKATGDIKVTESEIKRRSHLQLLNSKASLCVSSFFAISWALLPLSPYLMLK
Procedure: (§1) To evaluate the tumor antigen binding property, 16E3H3 M1 clone was analyzed for its binding to B7-H4-expressing mammalian cells by FACS. Briefly, B7-H4 positive cell (MX-1, CAMA-1, SK-BR3 and OVCAR-3) or B7-H4 negative cells (PANC-1) were incubated with M40413 antibody. After wash by FACS buffer (1% BSA in PBS), the FITC-anti-human IgG 1 antibody was added to each well and incubated at 4° C. for 45 min. The MFI of FITC was evaluated by FACS Calibur.

[2] = target: T1, human B7-H4 expressed on cells (CHOK-1 …); experiment: FACS on SK-BR3 cells, FITC anti-human IgG1 detection; y axis 'Fold of induction'
Procedure: as §1

[3] = target: T2, Fc fused human B7-H4 protein (human, UniProt Q7Z7D3 29-258, limits assumed); experiment: ELISA, Fc fused human B7-H4 coated at 1 µg/ml, anti-human Fab HRP
T2 construct: Coated on ELISA plates; not shown: Fc part
T2 sequence (looked up): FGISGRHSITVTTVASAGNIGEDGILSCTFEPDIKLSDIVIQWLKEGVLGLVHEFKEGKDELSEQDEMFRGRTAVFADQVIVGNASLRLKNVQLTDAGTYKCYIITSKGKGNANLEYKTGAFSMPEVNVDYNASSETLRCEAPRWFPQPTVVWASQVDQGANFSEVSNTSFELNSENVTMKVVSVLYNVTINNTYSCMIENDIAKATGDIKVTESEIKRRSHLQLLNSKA
Procedure: To evaluate the antigen binding activity of the humanized antibody, 16E3H3 M1 was subjected to ELISA. Briefly, ELISA plates were coated with Fc fused human B7-H4 protein at 1 μg/ml in PBS, 100 ul/well at 4° C. overnight, then blocked with 200 ul/well of 1% BSA in PBS at 37° C. Four fold dilutions of monoclonal antibody starting from 100 nM were added to each well and incubated for 1 hours at 37° C. The plates were washed with PBST (0.05% Tween 20 in PBS) and then incubated with HRP (Horse Radish Peroxidase) conjugated Anti-human Fab for 1 hr at 37° C. The plates were washed with PBST (Tween 20 0.05% in PBS) developed with TMB substrate and analyzed by spectrophotometer at OD 450 nm˜650 nm. As shown FIG. 2. 16E3H3 M1 bound to human B7-H4 with dose dependent manner.

EC50 (read off the curve) [1]: ~5 nM
EC50 (read off the curve) [2]: ~4 nM
EC50 [3]: 0.079 nM
B1: 16E3H3 M1 monospecific antibody (humanized anti-B7-H4 IgG1) (antibody, V domains shown)
VH: QVQLVQSGAEVKKPGASVKVSCKASGYPFTTYGMNWVKQAPGQGLEWMGWIDTYSGVPTYADDFKGRVTMTRDTSISTAYMELSRLRSDDTAVYFCARRSFWYFDVWGAGTTVTVSS
VL: DVVMTQSPLSLPVTLGQPASISCRSSQSLVHSNANTYLHWYLQRPGQSPRLLIYKVSNRFSGVPDRFSGSGSGTDFTLKISRVEAEDVGVYFCSQSTHVPWTFGGGTKVEIKR
notes: Humanized 16E3H3 with G29A in CDR-L1 for PTM removal; also called M40413; 16E3H3 M1 clone
